{"source": "paper PMC3569440", "about": "“Recombinant Production of Human Aquaporin-1 to an Exceptional High Membrane Density in Saccharomyces cerevisiae” (PLoS ONE, 2013)", "target": "the molecule itself", "test": "SEC; fluorescence-detection size-exclusion chromatography (FSEC); crude membranes (2 mg/ml) solubilized in CYMAL-5 or DDM at a detergent:protein ratio of 3, 50 mM phosphate pH 7.5, 10 mM imidazole, 500 mM NaCl, 4°C; Superose 12 10/300 GL; GFP fluorescence of fractions", "note": "“And” between values parts separate entries of the source, which are not always exact repeats. Identical values can stand only once."}
{"protein": "human Aquaporin-1 C-terminally tagged with yeast enhanced GFP and eight histidines (hAQP1-GFP-8His) (natural protein, UniProt P29972 1-269, looked up, human Aquaporin-1 (hAQP1), 269 amino acids; coding part of the cDNA without a translational stop codon, fused in frame to yeast enhanced GFP and eight histidines; not N-glycosylated in yeast; Order on the chain: hAQP1, yEGFP, 8 His; also called hAQP1-GFP-His8; Aquaporin-1-GFP; source: S. cerevisiae PAP1500 (plasmid pPAP8230), crude membranes solubilized in CYMAL-5 or DDM; also purified (CYMAL-5, …)) MASEFKKKLFWRAVVAEFLATTLFVFISIGSALGFKYPVGNNQTAVQDNVKVSLAFGLSIATLAQSVGHISGAHLNPAVTLGLLLSCQISIFRALMYIIAQCVGAIVATAILSGITSSLTGNSLGRNDLADGVNSGQGLGIEIIGTLQLVLCVLATTDRRRRDLGGSAPLAIGLSVALGHLLAIDYTGCGINPARSFGSAVITHNFSNHWIFWVGPFIGGALAVLIYDFILAPRSSDLTDRVKVWTSGQVEEYDLDADDINSRVEMKPK", "values": [{"measurement": "stoichiometry N", "value": "4 and > 4"}]}
